Data: patent US20160326228A1 (ACCELERON PHARMA, published 2016)

Legend:
[1] = target: T1, Growth and Differentiation Factor-8 (GDF8) (UniProt O14793 267-375); experiment: BiaCore; receptor-Fc captured by anti-hFc antibody, ligand injected
T1 construct: also called myostatin
T1 sequence (looked up): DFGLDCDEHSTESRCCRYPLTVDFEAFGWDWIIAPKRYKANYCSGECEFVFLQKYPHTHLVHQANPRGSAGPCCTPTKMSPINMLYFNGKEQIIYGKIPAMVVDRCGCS
Procedure: (§1) Binding of certain ActRIIB-Fc proteins and GDF Traps to ligands was tested in a BiaCore™ assay.
(§2) The ActRIIB-Fc variants or wild-type protein were captured onto the system using an anti-hFc antibody. Ligands were injected and flowed over the captured receptor proteins.

[2] = target: T2, Growth and Differentiation Factor-11 (GDF11) (UniProt O95390 299-407); experiment: as above
T2 construct: also called BMP11
T2 sequence (looked up): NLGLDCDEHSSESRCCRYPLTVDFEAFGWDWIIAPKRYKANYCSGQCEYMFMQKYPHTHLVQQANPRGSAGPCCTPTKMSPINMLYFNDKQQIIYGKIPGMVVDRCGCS
Procedure: as §1, §2

Activin A [3] = target: T3, Activin A (UniProt P08476 311-426); experiment: as above
T3 construct: also called ActA
T3 sequence (looked up): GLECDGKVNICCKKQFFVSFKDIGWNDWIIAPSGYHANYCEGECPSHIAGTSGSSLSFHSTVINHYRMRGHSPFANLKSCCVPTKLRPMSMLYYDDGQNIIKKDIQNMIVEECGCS
Procedure: as §1, §2

Activin A [4] = target: T3, Activin A; experiment: BiaCore; ligand coupled, receptor flowed over
[5] = target: T2, Growth and Differentiation Factor-11 …; experiment: BiaCore; ligand coupled, receptor flowed over
[6] = target: T2, Growth and Differentiation Factor-11 …; experiment: BiaCore; ligand coupled, receptor flowed over; legend: <1/5 WT binding

B1: ActRIIB(L79E 20-134)-hFc (Fc fusion)
chain: GRGEAETRECIYYNANWELERTNQSGLERCEGEQDKRLHCYASWRNSSGTIELVKKGCWEDDFNCYDRQECVATEENPQVYFCCCEGNFCNERFTHLPEAGGPEVTYEPPPTAPTGGGTHTCPPCPAPELLGGPSVFLFPPKPKDTLMISRTPEVTCVVVDVSHEDPEVKFNWYVDGVEVHNAKTKPREEQYNSTYRVVSVLTVLHQDWLNGKEYKCKVSNKALPVPIEKTISKAKGQPREPQVYTLPPSREEMTKNQVSLTCLVKGFYPSDIAVEWESNGQPENNYKTTPPVLDSDGSFFLYSKLTVDKSRWQQGNVFSCSVMHEALHNHYTQKSLSLSPGK
For B1, which Kd [1] is on record?
Its Kd is 2.41 nM.

And the koff [1]?
The koff was 0.0009 s⁻¹.

What about the Kd [2] of the same binder?
Its Kd is 0.716 nM.

What about the koff [2] of the same binder?
Its koff is 0.000274 s⁻¹.

B2: ActRIIB(A24N 20-134)-hFc (Fc fusion)
chain: GRGENETRECIYYNANWELERTNQSGLERCEGEQDKRLHCYASWRNSSGTIELVKKGCWLDDFNCYDRQECVATEENPQVYFCCCEGNFCNERFTHLPEAGGPEVTYEPPPTAPT
notes: also called A24N variant; not shown: linker (if any) and human Fc (hFc)
B2 was tested. Which Kd (Activin A [3]) did it give?
Its Kd is 0.104 nM.

What about the koff (Activin A [3]) of the same binder?
The koff was 0.000346 s⁻¹.

What about the kon (Activin A [3]) of the same binder?
Its kon is 3.34e+06 M⁻¹ s⁻¹.

What about the Kd [2] of the same binder?
Its Kd is 0.0519 nM.

What about the koff [2] of the same binder?
The koff was 6.35e-05 s⁻¹.

B3: ActRIIB(K74A 20-134)-hFc (Fc fusion)
chain: GRGEAETRECIYYNANWELERTNQSGLERCEGEQDKRLHCYASWRNSSGTIELVAKGCWLDDFNCYDRQECVATEENPQVYFCCCEGNFCNERFTHLPEAGGPEVTYEPPPTAPT
notes: not shown: linker (if any) and human Fc (hFc)
How did the Kd [1] turn out when B3 was run?
Its Kd is 0.0718 nM.

What about the koff [1] of the same binder?
Its koff is 2.03e-05 s⁻¹.

B4: ActRIIB(P129S, P130R 20-134)-hFc (Fc fusion)
chain: GRGEAETRECIYYNANWELERTNQSGLERCEGEQDKRLHCYASWRNSSGTIELVKKGCWLDDFNCYDRQECVATEENPQVYFCCCEGNFCNERFTHLPEAGGPEVTYEPSRTAPT
notes: T0017 prints a P129S P130A variant; kept as a separate molecule; not shown: linker (if any) and human Fc (hFc)
For B4, which Kd (Activin A [3]) is on record?
Its Kd is 0.0831 nM.

And the koff (Activin A [3])?
The koff was 0.000417 s⁻¹.

And the kon (Activin A [3])?
Its kon is 5.02e+06 M⁻¹ s⁻¹.

What about the Kd [1] of the same binder?
The Kd was 1.67 nM.

And the koff [1]?
Its koff is 0.00018 s⁻¹.

B5: ActRIIB(R64K 20-134)-hFc (Fc fusion)
chain: GRGEAETRECIYYNANWELERTNQSGLERCEGEQDKRLHCYASWKNSSGTIELVKKGCWLDDFNCYDRQECVATEENPQVYFCCCEGNFCNERFTHLPEAGGPEVTYEPPPTAPT
notes: as for B3
Which Kd (Activin A [3]) does the source give for B5 here?
Its Kd is 0.0476 nM.

And the koff (Activin A [3])?
The koff was 0.000325 s⁻¹.

What about the kon (Activin A [3]) of the same binder?
Its kon is 6.82e+06 M⁻¹ s⁻¹.

What about the Kd [1] of the same binder?
Its Kd is 0.21 nM.

What about the koff [1] of the same binder?
Its koff is 4.71e-05 s⁻¹.

And the Kd [2]?
Its Kd is 0.0356 nM.

What about the koff [2] of the same binder?
The koff was 2.41e-05 s⁻¹.

B6: Soluble ActRIIB-Fc WT (64A) (Fc fusion, UniProt Q13705 19-119, looked up)
chain: SGRGEAETRECIYYNANWELERTNQSGLERCEGEQDKRLHCYASWANSSGTIELVKKGCWLDDFNCYDRQECVATEENPQVYFCCCEGNFCNERFTHLPEA
notes: whole entry named; not shown: linker (if any) and Fc
B6 was tested. Which Kd (Activin A [4]) did it give?
Its Kd is 180 nM.

What about the Kd [5] of the same binder?
The Kd was 260 nM.

B7: ActRIIB(R64K 20-129)-hFc (Fc fusion)
chain: GRGEAETRECIYYNANWELERTNQSGLERCEGEQDKRLHCYASWKNSSGTIELVKKGCWLDDFNCYDRQECVATEENPQVYFCCCEGNFCNERFTHLPEAGGPEVTYEPP
notes: as for B3
B7 was tested. Which Kd (Activin A [3]) did it give?
Its Kd is 0.0841 nM.

What about the koff (Activin A [3]) of the same binder?
The koff was 0.000628 s⁻¹.

What about the kon (Activin A [3]) of the same binder?
Its kon is 7.46e+06 M⁻¹ s⁻¹.

And the Kd [1]?
The Kd was 2.15 nM.

And the koff [1]?
The koff was 0.000209 s⁻¹.

B8: Soluble ActRIIB-Fc variant D54A (Fc fusion)
chain: GRGEAETRECIYYNANWELERTNQSGLERCEGEQAKRLHCYASWANSSGTIELVKKGCWLDDFNCYDRQECVATEENPQVYFCCCEGNFCNERFTHLPEA
notes: as for B6
Does B8 bind [5]?
Result: no binding

B9: Soluble ActRIIB-Fc variant D80K (Fc fusion)
chain: GRGEAETRECIYYNANWELERTNQSGLERCEGEQDKRLHCYASWANSSGTIELVKKGCWLKDFNCYDRQECVATEENPQVYFCCCEGNFCNERFTHLPEA
notes: as for B6
Does B9 bind (Activin A [4])?
Result: no binding

Does B9 bind [5]?
Result: no binding

B10: Soluble ActRIIB-Fc variant D80A (Fc fusion)
chain: GRGEAETRECIYYNANWELERTNQSGLERCEGEQDKRLHCYASWANSSGTIELVKKGCWLADFNCYDRQECVATEENPQVYFCCCEGNFCNERFTHLPEA
notes: as for B6
Does B10 bind (Activin A [4])?
Result: no binding

Does B10 bind [5]?
Result: no binding

B11: Soluble ActRIIB-Fc variant K74F (Fc fusion)
chain: GRGEAETRECIYYNANWELERTNQSGLERCEGEQDKRLHCYASWANSSGTIELVFKGCWLDDFNCYDRQECVATEENPQVYFCCCEGNFCNERFTHLPEA
notes: as for B6
For B11, which “binding relative to WT” value [6] is on record?
The value was less than 0.2 fold.

Does B11 bind (Activin A [4])?
Result: no binding

B12: Soluble ActRIIB-Fc variant E37A (Fc fusion)
chain: GRGEAETRECIYYNANWALERTNQSGLERCEGEQDKRLHCYASWANSSGTIELVKKGCWLDDFNCYDRQECVATEENPQVYFCCCEGNFCNERFTHLPEA
notes: as for B6
Does B12 bind (Activin A [4])?
Result: no binding

Does B12 bind [5]?
Result: no binding

B13: Soluble ActRIIB-Fc variant D80N (Fc fusion)
chain: GRGEAETRECIYYNANWELERTNQSGLERCEGEQDKRLHCYASWANSSGTIELVKKGCWLNDFNCYDRQECVATEENPQVYFCCCEGNFCNERFTHLPEA
notes: as for B6
Does B13 bind (Activin A [4])?
Result: no binding

Does B13 bind [5]?
Result: no binding

B14: Soluble ActRIIB-Fc variant L79A (Fc fusion)
chain: GRGEAETRECIYYNANWELERTNQSGLERCEGEQDKRLHCYASWANSSGTIELVKKGCWADDFNCYDRQECVATEENPQVYFCCCEGNFCNERFTHLPEA
notes: as for B6
Does B14 bind [5]?
Result: no binding

B15: Soluble ActRIIB-Fc variant D80M (Fc fusion)
chain: GRGEAETRECIYYNANWELERTNQSGLERCEGEQDKRLHCYASWANSSGTIELVKKGCWLMDFNCYDRQECVATEENPQVYFCCCEGNFCNERFTHLPEA
notes: as for B6
Does B15 bind (Activin A [4])?
Result: no binding

Does B15 bind [5]?
Result: no binding

B16: Soluble ActRIIB-Fc variant D80F (Fc fusion)
chain: GRGEAETRECIYYNANWELERTNQSGLERCEGEQDKRLHCYASWANSSGTIELVKKGCWLFDFNCYDRQECVATEENPQVYFCCCEGNFCNERFTHLPEA
notes: as for B6
Does B16 bind (Activin A [4])?
Result: no binding

Does B16 bind [5]?
Result: no binding

B17: Soluble ActRIIB-Fc variant D80R (Fc fusion)
chain: GRGEAETRECIYYNANWELERTNQSGLERCEGEQDKRLHCYASWANSSGTIELVKKGCWLRDFNCYDRQECVATEENPQVYFCCCEGNFCNERFTHLPEA
notes: as for B6
Does B17 bind (Activin A [4])?
Result: no binding

Does B17 bind [5]?
Result: no binding

B18: Soluble ActRIIB-Fc variant W78A (Fc fusion)
chain: GRGEAETRECIYYNANWELERTNQSGLERCEGEQDKRLHCYASWANSSGTIELVKKGCALDDFNCYDRQECVATEENPQVYFCCCEGNFCNERFTHLPEA
notes: as for B6
Which results are given for B18?
binding result (Activin A [4]): no binding; binding result [5]: no binding

B19: Soluble ActRIIB-Fc variant K74Y (Fc fusion)
chain: GRGEAETRECIYYNANWELERTNQSGLERCEGEQDKRLHCYASWANSSGTIELVYKGCWLDDFNCYDRQECVATEENPQVYFCCCEGNFCNERFTHLPEA
notes: as for B6
How did the “binding relative to WT” value [6] turn out when B19 was run?
Its value is less than 0.2 fold.

Does B19 bind (Activin A [4])?
Result: no binding

B20: Soluble ActRIIB-Fc variant K55A (Fc fusion)
chain: GRGEAETRECIYYNANWELERTNQSGLERCEGEQDARLHCYASWANSSGTIELVKKGCWLDDFNCYDRQECVATEENPQVYFCCCEGNFCNERFTHLPEA
notes: as for B6
Does B20 bind [5]?
Result: no binding

B21: Soluble ActRIIB-Fc variant R56A (Fc fusion)
chain: GRGEAETRECIYYNANWELERTNQSGLERCEGEQDKALHCYASWANSSGTIELVKKGCWLDDFNCYDRQECVATEENPQVYFCCCEGNFCNERFTHLPEA
notes: as for B6
Which results are given for B21?
binding result (Activin A [4]): no binding; binding result [5]: no binding

B22: Soluble ActRIIB-Fc variant K74A (Fc fusion)
chain: GRGEAETRECIYYNANWELERTNQSGLERCEGEQDKRLHCYASWANSSGTIELVAKGCWLDDFNCYDRQECVATEENPQVYFCCCEGNFCNERFTHLPEA
notes: as for B6
With B22 as the binder, how does the Kd (Activin A [4]) read?
The Kd was 4.35 nM.

And the Kd [5]?
The Kd was 5.3 nM.

B23: Soluble ActRIIB-Fc variant D80I (Fc fusion)
chain: GRGEAETRECIYYNANWELERTNQSGLERCEGEQDKRLHCYASWANSSGTIELVKKGCWLIDFNCYDRQECVATEENPQVYFCCCEGNFCNERFTHLPEA
notes: as for B6
B23 was tested. Which “binding relative to WT” value [6] did it give?
Its value is less than 0.2 fold.

Does B23 bind (Activin A [4])?
Result: no binding

B24: Soluble ActRIIB-Fc variant D80G (Fc fusion)
chain: GRGEAETRECIYYNANWELERTNQSGLERCEGEQDKRLHCYASWANSSGTIELVKKGCWLGDFNCYDRQECVATEENPQVYFCCCEGNFCNERFTHLPEA
notes: as for B6
Does B24 bind (Activin A [4])?
Result: no binding

Does B24 bind [5]?
Result: no binding

B25: Soluble ActRIIB-Fc variant K74I (Fc fusion)
chain: GRGEAETRECIYYNANWELERTNQSGLERCEGEQDKRLHCYASWANSSGTIELVIKGCWLDDFNCYDRQECVATEENPQVYFCCCEGNFCNERFTHLPEA
notes: as for B6
For B25, which “binding relative to WT” value [6] is on record?
The value was less than 0.2 fold.

Does B25 bind (Activin A [4])?
Result: no binding
